Assay results from article PMC10925157.

Target: Acinetobacter baumannii rhodanese-like domain protein (Ab-RLD) (Acinetobacter baumannii)
Assay: SEC

Work on “Acinetobacter baumannii rhodanese-like domain protein (Ab-RLD) (enzyme)” yielded a stoichiometry N of 2.
